Experimental data published in paper PMC9785946, “Bioorthogonal Chemistry Approach for the Theranostics of GRPR-Expressing Cancers” (Pharmaceutics, 2022).
Where “and” joins values, the source holds several entries; their conditions need not be identical. Equal values may be shown once. Read-outs that look alike come from different tables or passages of the source.

Tests used:
PC3 cells = assay: Cellular uptake, internalization and blocking assays in PC3 cells; assay type: cell-based, human; conditions: 37 °C
Procedure: The time-dependent accumulation of ^111In-conjugates in PC3 cells was evaluated according to a previously described procedure. Briefly, PC3 cells were incubated at 37 °C for 5 min to 4 h with about 7.4 kBq of the tested radioconjugates. To assess the surface binding, the cells were treated twice with glycine buffer (50 mM glycine-HCl/100 mM NaCl, pH 2.8). Then, the cells were lysed with NaOH 1 M (internalized radioconjugate). The activity in both cell surface-bound and internalized fractions was measured in a γ-counter and reported as a percentage of the total applied radioactivity. The total cellular uptake was calculated by the addition of the activities recovered from the surface binding and internalized fractions. Assays for each time point were performed in quadruplicate, and data were presented as average ± SD of typically three independent experiments.
To assess the specific GRPR-mediated cellular uptake and internalization of radioconjugates (receptor blocking studies), a similar study was performed in which cells were incubated with the [^111In]In-DOTA-Tz-TCO-PEG4-AR for 1, 2 and 4 h, with or without the GRPR agonist Tyr4-Bombesin (0.25 µg/0.5 mL/well).

[1] = Biodistribution of 111In-radioconjugates/radiocomplex in PC3 xenografts-bearing mice; assay type: in vivo, Balb/c-male nude mice; conditions: male, Balb/c nude, mouse, iv, total radioactivity; for tissue uptake at […]: 15 min p.i.
Text: (§1) Blood samples were taken by cardiac puncture at sacrifice.

[2] = system: PC3 xenografts-bearing mice; assay: as above; assay type: in vivo, Balb/c-male nude mice
Text: as §1

[3] = Procedure: The octanol–water partition coefficients (Po/w) of the radioconjugates (20 µL, typically 1 to 5 MBq) were determined by the “shake-flask” method, as previously described.
[4] = 15 min p.i., listed as [111In]In-DOTA-Tz-TCO-PEG4-AR
[5] = 1 h p.i., blocking (excess of agonist)

For `CC(C)C[C@H](NC(=O)C[C@H](O)[C@H](CC(C)C)NC(=O)[C@H](Cc1c[nH]cn1)NC(=O)CNC(=O)[C@@H](NC(=O)[C@H](C)NC(=O)[C@H](Cc1c[nH]c2ccccc12)NC(=O)[C@H](CCC(N)=O)NC(=O)[C@@H](Cc1ccccc1)NC(=O)CCOCCOCCOCCOCCNC(=O)OC1CCCc2c(cnnc2-c2ccc(CNC(=O)CN3CCN(CC(=O)O)CCN(CC(=O)O)CCN(CC(=O)O)CC3)cc2)CC1)C(C)C)C(N)=O` (stereo partly drawn) [[^111In]In-DOTA-Tz-TCO-PEG4-AR, metal not drawn], the “Distribution of cell-associated activity (surface-bound vs internalized)” value (PC3 cells) was “mainly bound to the cell membrane”, the Cellular uptake (PC3 cells; start of the assay) was 17 % of the total activity applied per million cells and the tissue uptake at 1 h ([1]; heart, 1 h p.i., read-out: Heart uptake) was 0.815 %ID/g. For the same compound, the dose excreted at 1 h ([1]; in vivo, 1 h p.i., read-out: Excretion) was 74.8%, the dose excreted at 24 h ([1]; in vivo, 24 h post-injection, mainly through the renal system, read-out: Injected activity excreted) was 97% and the tissue uptake at 1 h ([1]; intestine, 1 h p.i., read-out: Intestine uptake) was 1.85 %ID/g. The tissue uptake at […] ([1]; kidneys, read-out: Kidneys uptake) was 15.4 ± 6.2 %ID/g, the tissue uptake at 1 h ([1]; kidneys, 1 h p.i., read-out: Kidneys uptake) was 5.33 %ID/g and the tissue uptake at […] ([1]; liver, read-out: Liver uptake) was 6 %ID/g. The tissue uptake at 1 h ([1]; lungs, 1 h p.i., read-out: Lungs uptake) was 1.61 %ID/g, the tissue uptake at 1 h ([1]; muscle, 1 h p.i., read-out: Muscle uptake) was 0.875 %ID/g and the tissue uptake at 2 h ([1]; pancreas, 2 h p.i.) was 11 %ID/g. It also gave a tissue uptake at 1 h ([1]; pancreas, with excess of agonist (receptor blocking), 1 h p.i., blocking (excess of agonist), read-out: Pancreas uptake) of 1.6 ± 0.6 %ID/g, a tissue uptake at 1 h ([1]; stomach, 1 h p.i., read-out: Stomach uptake) of 2.62 %ID/g and a tissue uptake at 1 h ([1]; tumor (PC3 xenograft), 1 h p.i., read-out: Tumor uptake) of 9.57 %ID/g. For the same compound, the tissue uptake at 1 h ([1]; tumor (PC3 xenograft), with excess of agonist (receptor blocking), 1 h p.i., blocking (excess of agonist), read-out: Tumor uptake) was 4.4 ± 2 %ID/g, the Blood uptake ([2]; 15 min p.i.) was 6. 7 % I.D./g and the Bone uptake ([2]; 15 min p.i.) was 7. 2 % I.D./g. For the same compound, the Excretion ([2]; 15 min p.i.) was 17. % I.D, the Heart uptake ([2]; 15 min p.i.) was 5. 4 % I.D./g and the Intestine uptake ([2]; 15 min p.i.) was 3. 6 % I.D./g. For the same compound, the Lungs uptake ([2]; 15 min p.i.) was 9. 6 % I.D./g, the Muscle uptake ([2]; 15 min p.i.) was 3. 8 % I.D./g and the Pancreas uptake ([2]; 15 min p.i.) was 25.2 ± 3 % I.D./g and 25.2 ± 0.2 % I.D./g. The Spleen uptake ([2]; 15 min p.i.) was 3. 6 % I.D./g, the Stomach uptake ([2]; 15 min p.i.) was 10. 6 % I.D./g and the Tumor uptake ([2]; 15 min p.i.) was 8.4 ± 0.5 % I.D./g. For the same compound, the Kidneys uptake [2, 4] was 15. 4 % I.D./g, the Pancreas uptake [2, 4] was 25. 2 % I.D./g and the Tumor uptake [2, 4] was 8. 4 % I.D./g. For the same compound, the Blood uptake ([2]; 1 h p.i.) was 2. 62 % I.D./g, the Bone uptake ([2]; 1 h p.i.) was 0. 85 % I.D./g and the Liver uptake ([2]; 1 h p.i.) was 1. 15 % I.D./g. For the same compound, the Pancreas uptake ([2]; 1 h p.i.) was 13.9 ± 1.6 % I.D./g, the Spleen uptake ([2]; 1 h p.i.) was 1. 32 % I.D./g and the Tumor uptake ([2]; 1 h p.i.) was 9.6 ± 1.7 % I.D./g. The Blood uptake [2, 5] was 3. 08 % I.D./g, the Bone uptake [2, 5] was 1. 395 % I.D./g and the Excretion [2, 5] was 51. % I.D. For the same compound, the Heart uptake [2, 5] was 1. 11 % I.D./g, the Intestine uptake [2, 5] was 0. 995 % I.D./g and the Kidneys uptake [2, 5] was 8. 435 % I.D./g. The Liver uptake [2, 5] was 1. 63 % I.D./g, the Lungs uptake [2, 5] was 2. 135 % I.D./g and the Muscle uptake [2, 5] was 1. 755 % I.D./g. The Pancreas uptake [2, 5] was 1. 685 % I.D./g, the Spleen uptake [2, 5] was 0. 83 % I.D./g and the Stomach uptake [2, 5] was 1. 16 % I.D./g. For the same compound, the Tumor uptake [2, 5] was 4. 445 % I.D./g, the Pancreas uptake ([2]; 1 h p.i., listed as [111In]In-DOTA-Tz-TCO-PEG4-AR) was 13. 875 % I.D./g and the Blood uptake ([2]; 2 h p.i.) was 1. 7 % I.D./g. The Bone uptake ([2]; 2 h p.i.) was 0. 7 % I.D./g, the Excretion ([2]; 2 h p.i.) was 84. % I.D and the Heart uptake ([2]; 2 h p.i.) was 0. 5 % I.D./g. For the same compound, the Intestine uptake ([2]; 2 h p.i.) was 1. 1 % I.D./g, the Kidneys uptake ([2]; 2 h p.i.) was 5. 4 % I.D./g and the Liver uptake ([2]; 2 h p.i.) was 1. 7 % I.D./g. The Lungs uptake ([2]; 2 h p.i.) was 1. 1 % I.D./g, the Muscle uptake ([2]; 2 h p.i.) was 0. 6 % I.D./g and the Pancreas uptake ([2]; 2 h p.i.) was 11 ± 2.5 % I.D./g. For the same compound, the Spleen uptake ([2]; 2 h p.i.) was 0. 6 % I.D./g, the Stomach uptake ([2]; 2 h p.i.) was 2. 1 % I.D./g and the Tumor uptake ([2]; 2 h p.i.) was 13.1 ± 1.7 % I.D./g. For the same compound, the Tumor uptake ([2]; 2 h p.i., listed as [111In]In-DOTA-Tz-TCO-PEG4-AR) was 13. 1 % I.D./g, the Blood uptake ([2]; 24 h p.i.) was 0. 16 % I.D./g and the Bone uptake ([2]; 24 h p.i.) was 0. 038 % I.D./g. For the same compound, the Excretion ([2]; 24 h p.i.) was 96. % I.D, the Heart uptake ([2]; 24 h p.i.) was 0. 065 % I.D./g and the Intestine uptake ([2]; 24 h p.i.) was 0. 12 % I.D./g. The Kidneys uptake ([2]; 24 h p.i.) was 1. 17 % I.D./g, the Liver uptake ([2]; 24 h p.i.) was 0. 21 % I.D./g and the Lungs uptake ([2]; 24 h p.i.) was 0. 12 % I.D./g. The Muscle uptake ([2]; 24 h p.i.) was 0. 034 % I.D./g, the Pancreas uptake ([2]; 24 h p.i.) was 0. 14 % I.D./g and the Spleen uptake ([2]; 24 h p.i.) was 0. 065 % I.D./g. For the same compound, the Stomach uptake ([2]; 24 h p.i.) was 0. 09 % I.D./g, the Tumor uptake ([2]; 24 h p.i.) was 0. 76 % I.D./g and the logP [3] was -1.2 ± 0.04.
